According to PMC6733264 (ACS chemical biology, 2019):
Ends that are not written are not given here.

Target: kinase domain of BRAF^WT (human, UniProt P15056 457-717)
Experiment: other fluorescence titration

Sequence of kinase domain of BRAF^WT (P15056 whole entry, looked up, the tested form may be a part): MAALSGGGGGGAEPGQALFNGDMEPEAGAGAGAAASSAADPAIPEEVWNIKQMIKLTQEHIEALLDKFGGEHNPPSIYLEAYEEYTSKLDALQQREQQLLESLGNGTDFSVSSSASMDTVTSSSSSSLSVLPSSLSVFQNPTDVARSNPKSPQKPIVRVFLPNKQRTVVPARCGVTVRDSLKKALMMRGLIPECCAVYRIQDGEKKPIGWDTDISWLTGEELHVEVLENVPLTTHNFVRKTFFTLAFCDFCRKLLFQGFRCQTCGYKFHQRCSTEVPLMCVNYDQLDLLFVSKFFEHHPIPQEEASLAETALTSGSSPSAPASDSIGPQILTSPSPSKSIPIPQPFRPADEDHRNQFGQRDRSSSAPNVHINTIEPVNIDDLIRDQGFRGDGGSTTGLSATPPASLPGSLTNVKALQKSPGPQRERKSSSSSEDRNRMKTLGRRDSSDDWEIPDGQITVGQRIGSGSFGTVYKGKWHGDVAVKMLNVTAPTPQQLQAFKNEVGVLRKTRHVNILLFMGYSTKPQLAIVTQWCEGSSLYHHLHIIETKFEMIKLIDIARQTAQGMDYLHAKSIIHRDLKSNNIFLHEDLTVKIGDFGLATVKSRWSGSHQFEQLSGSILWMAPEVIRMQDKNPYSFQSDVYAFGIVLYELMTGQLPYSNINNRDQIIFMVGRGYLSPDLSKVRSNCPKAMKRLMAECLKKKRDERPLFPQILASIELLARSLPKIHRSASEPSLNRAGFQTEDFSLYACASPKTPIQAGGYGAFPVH

B1: Braftide-Cy3 (peptide)
peptide: TRHVNILLFM
modifications: also: Cy3 label, end not given here
Kd: 6.69 µM
